Results as given in publication PMC7486241 (Cell Host & Microbe, 2020).
Positions count from the first letter of the chain named. Where two headings read alike, the source gives them in different places.

Experiments:
[1] = target: T1, HA ectodomain of A/California/04/2009 (H1N1), cleaved mature HA (HA1/HA2) (influenza A virus A/California/04/2009 …); experiment: crystal structure; conditions: both partners purified
T1 construct: copies: 3 + 3

[2] = target: T2, recombinant HA of H5N1 A/Indonesia/05/2005, biotinylated (Influenza A virus A/Indonesia/05/2005 …, UniProt C5MRF2, strain, biotin); experiment: Meso Scale Discovery (MSD) electrochemiluminescence binding assay; conditions: both partners purified
[3] = target: recombinant HA of H7N9 A/Shanghai/02/2013, biotinylated (Influenza A virus A/Shanghai/02/2013 …, UniProt R4NN21, strain, biotin); experiment: as above; conditions: both partners purified
[4] = target: T3, recombinant HA of H1N1 A/California/04/2009, biotinylated (Influenza A virus A/California/04/2009 …, UniProt C3W5S1, strain, biotin); experiment: as above; conditions: both partners purified
T3 construct: source: plasmid pCMV/R-HA-AviHis, Andrews et al., 2017

[5] = target: recombinant HA of H1N1 A/New Caledonia/20/1999, biotinylated (Influenza A virus A/New …, UniProt Q6WG00, strain, biotin); experiment: as above; conditions: both partners purified
[6] = target: T4, recombinant HA of H3N2 A/Hongkong/1/1968, biotinylated (Influenza A virus A/Hong Kong/1/1968 …, UniProt Q91MA7, strain, biotin); experiment: as above; conditions: both partners purified
T4 construct: source: plasmid pCMV/R-HA-AviHis, Andrews et al., 2017

[7] = target: recombinant HA of H3N2 A/Texas/50/2012, biotinylated (Influenza A virus A/Texas/50/2012 (H3N2), UniProt R4L1D1, strain, biotin); experiment: as above; conditions: both partners purified
[8] = target: recombinant HA of H9N2 A/Hongkong/1073/1999, biotinylated (Influenza A virus A/Hong Kong/1073/1999 …, UniProt Q9ICY5, strain, biotin); experiment: as above; conditions: both partners purified
[9] = target: T3, recombinant HA of H1N1 …
[10] = target: T2, recombinant HA of H5N1 …
[11] = target: H9N2 A/Hongkong/1073/1999 hemagglutinin (HA), biotinylated recombinant (influenza A virus A/Hongkong/1073/1999 …, biotin); experiment: BLI; conditions: both partners purified
[12] = target: H7N9 A/Shanghai/02/2013 hemagglutinin (HA), biotinylated recombinant (Influenza A virus A/Shanghai/02/2013 …, UniProt R4NN21, biotin); experiment: BLI; conditions: both partners purified
[13] = target: H3N2 A/Texas/50/2012 hemagglutinin (HA), biotinylated recombinant (influenza A virus A/Texas/50/2012 (H3N2), biotin); experiment: BLI; conditions: both partners purified

B1: 54-4H03 Fab (Fab, V domains shown)
VH: QVQLQQSGPGLVKPSQTLSLTCAISGDSVSSNSVAWNWIRQSPSRGLEWLGRTYFRSKWYTDYAESLKSRMTINPDTSKNEFSLHLKSVTSDDTAVYYCVRGIIFNWPLGGWSFDLWGRGTLVSVSS
VL: EIVLTQSPGTLSLSPGDSATLSCRASQSVASSYLAWYQQKPGQSPRLLIYATINRAADIPDRFSGSGSGTDFALTISRLEPEDFAVYYCQQFDSSSMYTFGQGTKLEIT
[1]
  binding result: binds

B2: 54-4H03 VH G100cT/S100fY, IgG (54-4H03 light chain) (antibody, V domains shown)
VH: B1 VH with G110T, S113Y
VL: B1 VL
[2]
  binding result: no binding
[3]
  binding result: no binding

B3: 54-4H03 (clonotype A), IgG (antibody, V domains shown)
VH: B1 VH
VL: B1 VL
[4]
  binding result: binds
[3]
  binding result: binds

B4: 54-1G05 (clonotype B), IgG (antibody, V domains shown)
VH: QVQLQQSGPRLVKPSQTLSLTCAISGDSVSSSSAVWTWIRQSPSRGLEWLGRTYYRSKWYDDYAVSVQGRITINPDTSKNQISLQLNSVTPDDTAVYYCARSSINIFGVFVMAMDVWGQGTAVTVSS
VL: EIVLTQSPGTLSLSPGERVTLSCRASQTVYNSYLAWYQQKPGQAPTLLIYGTSTRATGVPDRFSGSGSGTVFTLTISRLEPEDFAVYFCQQYSTSPRALTFGGGTKVEIK
notes: source: Expi293 cells, transfected, purified from the supernatant (Protein A)
[4]
  binding result: binds
[2]
  binding result: binds
[5]
  binding result: binds
[6]
  binding result: binds
[7]
  binding result: binds
[3]
  binding result: binds
[8]
  binding result: binds

B5: 54-1B01 (antibody, V domains shown)
VH: QVQLQQSGPGVVKPSQSLALTCAISGDSVSNDRVAWIWIRQSPSRGLEWLGRTYYRSKWYNDYANSVRGRMTINPDTSKNQFSLNLDSVTPDDTAVYYCARGMIFGRPLTGWYFDFWGRGTLVTVSS
VL: EIVLTQSPGTLSLSAGERVTLFCRASQHVSSGYLAWYQQKPGQAPRLLIYGATNRATGIPDRFSGSGSGTDFALTISRLEPEDFAVYYCQQFDSSSMYTFGQGTKLEIK
[9]
  binding result: binds
[10]
  binding result: binds

B6: 54-1G07 (clonotype A), IgG (antibody, V domains shown)
VH: QVQLQQSGPGLVKPSQTLALTCGISGDTVSNNRVAWNWIRQSPSRGLEWLGRTYYRSKWYSDYSKSVTGRMTINPDTSKNQFSLHLDSVTPADTAVYYCARGMIFGWPLTGWYFDLWGRGTLVTVSS
VL: B5 VL with A15P, F22L, Q27H
notes: IgG format
[4]
  binding result: binds
[2]
  binding result: binds

B7: 54-1G07 Fab (Fab, V domains shown)
VH: B6 VH
VL: B5 VL with A15P, F22L, Q27H
[11]
  binding result: no binding (tested: 3200 nM (highest Fab concentration))

B8: early intermediate of clonotype A, IgG (antibody, V domains shown)
VH: QVQLQQSGPGLVKPSQTLSLTCAISGDSVSSNSAAWNWIRQSPSRGLEWLGRTYYRSKWYNDYAVSVKSRITINPDTSKNQFSLQLNSVTPEDTAVYYCARGMIFNWPLGGWSFDLWGRGTLVTVSS
VL: B5 VL with A15P, V19A, F22S, H28S, G32S, T53S, N54S, A73T
[4]
  binding result: binds

B9: 58-6E11 Fab (Fab, V domains shown)
VH: QVQLPQSGPGLVKPSQTLSLTCAISGDSVSSNSAVWTWIRQSPSRGLEWLGRTYYRSKWYNDYAVSVESRITINPDTSKNQFSLQLKSVTPEDTAVYFCARSGITIFGVSVMAMDIWGQGTTVIVSS
VL: EIVLTQSPGTLSLSPGERATLSCRASQNVAVSYLAWYQQKPGQPPRLLIYGASSRATGIPGRFTGSGSGTDFTLTINRLEPEDSAVYYCQQYATSPRALTFGGGTKVEIK
[12]
  binding result: no binding (tested: 3200 nM (highest Fab concentration))
[11]
  binding result: no binding (tested: 3200 nM (highest Fab concentration))
[13]
  binding result: no binding (tested: 3200 nM (highest Fab concentration))

B10: ClonB UCA Fab (Fab, V domains shown)
VH: B9 VH with P5Q, E68K, F98Y, S110I, V111I, I124T
VL: B9 VL with G61D, A93G, T94S
notes: also called early intermediate of clonotype B; EI (clonotype B)
[11]
  binding result: no binding (tested: 3200 nM (highest Fab concentration))
[13]
  binding result: no binding (tested: 3200 nM (highest Fab concentration))

B11: 54-1G05 VL early intermediate, IgG (54-1G05 VH paired with VL from the early intermediate of clonotype B) (antibody, V domains shown)
VH: B4 VH
VL: B9 VL with G61D, A93G, T94S
notes: IgG format
[3]
  binding result: binds

B12: early intermediate of clonotype B, IgG (antibody, V domains shown)
VH: B9 VH with P5Q, E68K, F98Y, S110I, V111I, I124T
VL: B9 VL with G61D, A93G, T94S
[4]
  binding result: binds
